The text below walks through data of PMC7036032.

The target of the test is T1, CstF77 (human), Q12996.
T1 chain: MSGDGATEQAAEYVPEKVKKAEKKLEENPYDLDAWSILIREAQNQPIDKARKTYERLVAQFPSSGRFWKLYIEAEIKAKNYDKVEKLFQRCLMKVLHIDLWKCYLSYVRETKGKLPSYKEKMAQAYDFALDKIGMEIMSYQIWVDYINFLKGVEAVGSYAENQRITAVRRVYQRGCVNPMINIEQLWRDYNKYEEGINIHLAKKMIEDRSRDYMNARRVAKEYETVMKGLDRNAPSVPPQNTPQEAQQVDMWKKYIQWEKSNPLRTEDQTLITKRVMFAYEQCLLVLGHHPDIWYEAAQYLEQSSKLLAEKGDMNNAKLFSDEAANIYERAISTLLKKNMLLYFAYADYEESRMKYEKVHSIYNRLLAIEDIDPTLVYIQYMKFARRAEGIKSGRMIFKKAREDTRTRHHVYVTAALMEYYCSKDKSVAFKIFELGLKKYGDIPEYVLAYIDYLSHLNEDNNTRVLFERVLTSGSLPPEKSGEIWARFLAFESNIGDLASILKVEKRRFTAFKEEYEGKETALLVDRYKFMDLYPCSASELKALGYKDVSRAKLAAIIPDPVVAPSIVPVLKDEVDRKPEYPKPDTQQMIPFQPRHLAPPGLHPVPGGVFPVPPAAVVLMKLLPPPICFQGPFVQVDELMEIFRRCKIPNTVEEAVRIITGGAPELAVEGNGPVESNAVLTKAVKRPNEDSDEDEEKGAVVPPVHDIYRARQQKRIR
The test is described as follows: cryo-EM structure. The note with it: remark: other sources report otherwise.

B1: CstF77, Q12996 1-717 (natural protein)
chain: MSGDGATEQAAEYVPEKVKKAEKKLEENPYDLDAWSILIREAQNQPIDKARKTYERLVAQFPSSGRFWKLYIEAEIKAKNYDKVEKLFQRCLMKVLHIDLWKCYLSYVRETKGKLPSYKEKMAQAYDFALDKIGMEIMSYQIWVDYINFLKGVEAVGSYAENQRITAVRRVYQRGCVNPMINIEQLWRDYNKYEEGINIHLAKKMIEDRSRDYMNARRVAKEYETVMKGLDRNAPSVPPQNTPQEAQQVDMWKKYIQWEKSNPLRTEDQTLITKRVMFAYEQCLLVLGHHPDIWYEAAQYLEQSSKLLAEKGDMNNAKLFSDEAANIYERAISTLLKKNMLLYFAYADYEESRMKYEKVHSIYNRLLAIEDIDPTLVYIQYMKFARRAEGIKSGRMIFKKAREDTRTRHHVYVTAALMEYYCSKDKSVAFKIFELGLKKYGDIPEYVLAYIDYLSHLNEDNNTRVLFERVLTSGSLPPEKSGEIWARFLAFESNIGDLASILKVEKRRFTAFKEEYEGKETALLVDRYKFMDLYPCSASELKALGYKDVSRAKLAAIIPDPVVAPSIVPVLKDEVDRKPEYPKPDTQQMIPFQPRHLAPPGLHPVPGGVFPVPPAAVVLMKLLPPPICFQGPFVQVDELMEIFRRCKIPNTVEEAVRIITGGAPELAVEGNGPVESNAVLTKAVKRPNEDSDEDEEKGAVVPPVHDIYRARQQKRIR
Molecule B1 showed a stoichiometry N of 2.
